The labels stand for the following.
B1: GroES^7I25D_(1,4,7) (other)
chain: MNIRPLHDRVIVKRKEVETKSAGGDVLTGSAAAKSTRGEVLAVGNGRILENGEVKPLDVKVGDIVIFNDGYGVKSEKIDNEEVLIMSESDILAIVEAMNIRPLHDRVIVKRKEVETKSAGGIVLTGSAAAKSTRGEVLAVGNGRILENGEVKPLDVKVGDIVIFNDGYGVKSEKIDNEEVLIMSESDILAIVEAMNIRPLHDRVIVKRKEVETKSAGGIVLTGSAAAKSTRGEVLAVGNGRILENGEVKPLDVKVGDIVIFNDGYGVKSEKIDNEEVLIMSESDILAIVEAMNIRPLHDRVIVKRKEVETKSAGGDVLTGSAAAKSTRGEVLAVGNGRILENGEVKPLDVKVGDIVIFNDGYGVKSEKIDNEEVLIMSESDILAIVEAMNIRPLHDRVIVKRKEVETKSAGGIVLTGSAAAKSTRGEVLAVGNGRILENGEVKPLDVKVGDIVIFNDGYGVKSEKIDNEEVLIMSESDILAIVEAMNIRPLHDRVIVKRKEVETKSAGGIVLTGSAAAKSTRGEVLAVGNGRILENGEVKPLDVKVGDIVIFNDGYGVKSEKIDNEEVLIMSESDILAIVEAMNIRPLHDRVIVKRKEVETKSAGGDVLTGSAAAKSTRGEVLAVGNGRILENGEVKPLDVKVGDIVIFNDGYGVKSEKIDNEEVLIMSESDILAIVEA
modifications: DyLight 650 NHS ester on amines (for MST)
B2: GroES^7I25A1,4 (other)
chain: B1 chain with D25A, D316A, D607I
modifications: DyLight 650 NHS ester on amines (for MST)
B3: GroES^7I25A1,3 (other)
chain: B1 chain with D25A, I219A, D316I, D607I
modifications: DyLight 650 NHS ester on amines (for MST)
B4: GroES^7I25A1,2 (other)
chain: B1 chain with D25A, I122A, D316I, D607I
modifications: DyLight 650 NHS ester on amines (for MST)
B5: GroES^7I25A_(1,4,7) (other)
chain: B1 chain with D25A, D316A, D607A
modifications: DyLight 650 NHS ester on amines (for MST)
B6: GroES^7 (other)
chain: B1 chain with D25I, D316I, D607I
modifications: DyLight 650 NHS ester on amines (for MST)
B7: GroES^7I25D1,2 (other)
chain: B1 chain with I122D, D316I, D607I
modifications: DyLight 650 NHS ester on amines (for MST)
B8: GroES^7I25D1,3 (other)
chain: B1 chain with I219D, D316I, D607I
modifications: DyLight 650 NHS ester on amines (for MST)
B9: GroES^7I25A1 (other)
chain: B1 chain with D25A, D316I, D607I
modifications: DyLight 650 NHS ester on amines (for MST)
B10: GroES^7I25D1,4 (other)
chain: B1 chain with D607I
modifications: DyLight 650 NHS ester on amines (for MST)
B11: GroES^7I25D1 (other)
chain: B1 chain with D316I, D607I
modifications: DyLight 650 NHS ester on amines (for MST)

Where a chain is given by its changes, count along the chain named.

Usually Kd stands for the free concentration of one partner at which half of the binding sites on the other are occupied at equilibrium, for simple one-to-one binding. A higher Kd goes with a looser complex.

For the first experiment, the target named is GroEL (E. coli, UniProt P0A6F5 1-548). Put plainly: MST.
B1 displayed a Kd of 40 nM.
B2 had a Kd of 8.99 nM.
The same measure, in the same setting: the value for B3 was 10 nM.
Same read-out and setting: the value for B4 was 8.97 nM; that for B5 was 77.2 nM; that for B6 was 3.05 nM.
Same read-out and setting: the value for B7 was 9.24 nM; that for B8 was 13.3 nM.
For B9, binding was characterised by a dissociation constant (Kd) of 4.6 nM.
Same read-out and setting: in the case of B10 it was 9.58 nM; in that of B11, 4.07 nM.

Another experiment has as its target GroEL^SR (GroEL R452A/E461A/S463A/V464A) (E. coli, UniProt P0A6F5 1-548, R452A | E461A | S463A | V464A). Put plainly: MST.
Molecule B2 showed a Kd of 51.3 nM.
Take B3: the dissociation constant Kd stood at 39.7 nM.
For B4, the Kd stood at 35 nM.
Same read-out and setting: in the case of B6 it was 4.54 nM; in that of B7, 38.7 nM.
Same read-out and setting: in the case of B8 it was 71.9 nM; in that of B10, 73.1 nM.
B11 came in with a dissociation constant (Kd) of 25.6 nM.

These data come from PMC5575113 (2017).
